Results on five molecules are retold here after patent publication US20240392004A1 (IMMUNOWAKE, published 2024).

Changes are numbered by the printed parent chain. In names and notes the source's numbering stands. Some results are limits rather than exact numbers.

Experiment [1] deals with T1, IFN-γ receptor (IFNGR1 and IFNGR2) (UniProt P15260 18-489; P38484 22-337, limits assumed).
T1 sequence (looked up) 1: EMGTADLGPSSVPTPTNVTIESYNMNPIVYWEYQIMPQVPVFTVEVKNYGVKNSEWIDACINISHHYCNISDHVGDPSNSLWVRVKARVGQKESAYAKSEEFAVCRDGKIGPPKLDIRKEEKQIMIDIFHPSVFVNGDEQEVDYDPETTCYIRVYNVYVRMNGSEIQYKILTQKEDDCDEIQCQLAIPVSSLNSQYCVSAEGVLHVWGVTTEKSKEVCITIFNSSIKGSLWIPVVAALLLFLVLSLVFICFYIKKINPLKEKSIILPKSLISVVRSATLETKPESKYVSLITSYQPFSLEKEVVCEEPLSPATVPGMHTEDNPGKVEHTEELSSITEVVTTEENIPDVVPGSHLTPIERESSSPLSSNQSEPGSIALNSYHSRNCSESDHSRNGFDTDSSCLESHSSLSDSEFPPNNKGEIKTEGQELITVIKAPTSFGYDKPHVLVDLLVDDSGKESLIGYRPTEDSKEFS
T1 sequence (looked up) 2: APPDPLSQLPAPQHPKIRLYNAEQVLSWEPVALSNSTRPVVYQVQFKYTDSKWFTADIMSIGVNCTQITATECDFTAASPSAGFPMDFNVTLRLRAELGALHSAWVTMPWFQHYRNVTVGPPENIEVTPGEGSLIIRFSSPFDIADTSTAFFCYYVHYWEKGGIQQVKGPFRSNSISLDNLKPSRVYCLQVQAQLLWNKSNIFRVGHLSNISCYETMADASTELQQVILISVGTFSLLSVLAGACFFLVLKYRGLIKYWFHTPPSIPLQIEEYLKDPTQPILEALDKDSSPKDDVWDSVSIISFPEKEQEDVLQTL
Kind of experiment: cell-based or functional assay.

Experiment [2] deals with T2, human TIGIT on HEK-Blue reporter cells (human, UniProt Q495A1 22-244).
T2 sequence (looked up): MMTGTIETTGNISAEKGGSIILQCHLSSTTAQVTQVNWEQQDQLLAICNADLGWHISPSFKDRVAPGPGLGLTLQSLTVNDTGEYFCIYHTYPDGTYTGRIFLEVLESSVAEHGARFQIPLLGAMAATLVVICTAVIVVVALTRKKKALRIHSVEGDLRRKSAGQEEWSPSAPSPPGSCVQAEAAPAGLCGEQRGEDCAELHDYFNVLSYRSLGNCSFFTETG
Kind of experiment: cell-based or functional assay.

Experiment [3] deals with human IL-12 receptor complex (IL-12Rβ1 and IL-12Rβ2) (human, UniProt P42701 24-662; Q99665 24-862). Description: cell-based or functional assay.
In experiment [4] the target is T3, mouse PD-1 (mouse, UniProt Q02242 25-167, limits assumed).
T3 construct: also called mPD-1
T3 sequence (looked up): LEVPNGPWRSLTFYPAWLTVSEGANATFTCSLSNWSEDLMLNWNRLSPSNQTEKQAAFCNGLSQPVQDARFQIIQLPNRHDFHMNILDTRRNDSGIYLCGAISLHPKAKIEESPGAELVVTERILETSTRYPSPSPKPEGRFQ
Kind of experiment: PD-L2-Fc format, calibrated on PD-L2(wt)-Fc, method not stated.

For experiment [5], the target named is T4, human PD-1 (human, UniProt Q15116 25-167, limits assumed).
T4 construct: also called hPD-1
The description is as above.

Chain of human IL-12 receptor complex (IL-12Rβ1 and IL-12Rβ2) (Q99665 24-862, chain 2 of 2, other chains not shown): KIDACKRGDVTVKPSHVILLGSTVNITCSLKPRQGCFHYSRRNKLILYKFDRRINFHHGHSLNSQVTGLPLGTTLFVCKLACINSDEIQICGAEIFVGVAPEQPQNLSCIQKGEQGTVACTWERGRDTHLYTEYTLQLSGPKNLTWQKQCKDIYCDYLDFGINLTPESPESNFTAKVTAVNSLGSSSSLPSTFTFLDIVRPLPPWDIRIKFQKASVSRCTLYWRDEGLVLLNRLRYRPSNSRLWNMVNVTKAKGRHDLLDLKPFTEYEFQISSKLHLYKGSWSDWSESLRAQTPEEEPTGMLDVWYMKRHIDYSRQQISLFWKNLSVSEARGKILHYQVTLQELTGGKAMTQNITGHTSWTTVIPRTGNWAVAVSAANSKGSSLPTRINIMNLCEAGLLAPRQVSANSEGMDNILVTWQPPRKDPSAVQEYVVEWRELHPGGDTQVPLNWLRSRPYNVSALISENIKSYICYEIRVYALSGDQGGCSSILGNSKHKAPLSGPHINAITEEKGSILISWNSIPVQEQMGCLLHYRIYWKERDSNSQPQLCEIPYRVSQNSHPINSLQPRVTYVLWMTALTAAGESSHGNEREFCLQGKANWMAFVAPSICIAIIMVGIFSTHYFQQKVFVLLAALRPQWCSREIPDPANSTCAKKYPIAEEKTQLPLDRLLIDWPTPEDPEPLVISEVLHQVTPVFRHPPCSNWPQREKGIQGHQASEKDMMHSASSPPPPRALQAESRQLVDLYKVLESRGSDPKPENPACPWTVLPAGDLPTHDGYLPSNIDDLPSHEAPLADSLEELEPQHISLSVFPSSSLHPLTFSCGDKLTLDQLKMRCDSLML
T4 sequence (Q15116 25-167 limits assumed): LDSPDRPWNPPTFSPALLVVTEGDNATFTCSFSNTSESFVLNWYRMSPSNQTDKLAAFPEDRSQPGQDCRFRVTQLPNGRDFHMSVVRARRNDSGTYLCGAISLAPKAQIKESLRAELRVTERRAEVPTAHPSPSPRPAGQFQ

B1: IL-12(E59A/F60A)/IFN-γ(A23V/A23V)/CD155-Fc (Fc fusion)
chain 1: WPPPGTGDVVVQAPTQVPGFLGDSVTLPCYLQVPNMEVTHVSQLTWARHGESGSMAVFHQTQGPSYSESKRLEFVAARLGAELRNASLRMFGLRVEDEGNYTCLFVTFPQGSRSVDIWLRVLAKPQNTAEVQKVQLTGEPVPMARCVSTGGRPPAQITWHSDLGGMPNTSQVPGFLSGTVTVTSLWILVPSSQVDGKNVTCKVEHESFEKPQLLTVNLTVYYPPEVSISGYDNNWYLGQNEATLTCDARSNPEPTGYNWSTTMGPLPPFAVAQGAQLLIRPVDKPINTTLICNVTNALGARQAELTVQVKEGPPSEHSGISRNGGGGSGGGIWELKKDVYVVELDWYPDAPGEMVVLTCDTPEEDGITWTLDQSSEVLGSGKTLTIQVKAAGDAGQYTCHKGGEVLSHSLLLLHKKEDGIWSTDILKDQKEPKNKTFLRCEAKNYSGRFTCWWLTTISTDLTFSVKSSRGSSDPQGVTCGAATLSAERVRGDNKEYEYSVECQEDSACPAAEESLPIEVMVDAVHKLKYENYTSSFFIRDIIKPDPPKNLQLKPLKNSRQVEVSWEYPDTWSTPHSYFSLTFCVQVQGKSKREKKDRVFTDKTSATVICRKNASISVRAQDRYYSSSWSEWASVPCSGGGGSGGGSGGGGSRNLPVATPDPGMFPCLHHSQNLLRAVSNMLQKARQTLEFYPCTSEEIDHEDITKDKTSTVEACLPLELTKNESCLNSRETSFITNGSCLASRKTSFMMALCLSSIYEDLKMYQVEFKTMNAKLLMDPKRQIFLDQNMLAVIDELMQALNFNSETVPQKSSLEEPDFYKTKIKLCILLHAFRIRAVTIDRVMSYLNASGGGGSGGGDKTHTCPPCPAPEDEGGPSVFLFPPKPKDTLMISRTPEVTCVVVDVSHEDPEVKFNWYVDGVEVHNAKTKPREEQYNSTYRVVSVLTVLHQDWLNGKEYKCKVSNKALPAPIEKTISKAKGQPREPQVYVYPPSREEMTKNQVSLTCLVKGFYPSDIAVEWESNGQPENNYKTTPPVLDEDGSFALVSKLTVDKSRWQQGNVFSCSVMHEALHNHYTQKSLSLSPGK
chain 2: WPPPGTGDVVVQAPTQVPGFLGDSVTLPCYLQVPNMEVTHVSQLTWARHGESGSMAVFHQTQGPSYSESKRLEFVAARLGAELRNASLRMFGLRVEDEGNYTCLFVTFPQGSRSVDIWLRVLAKPQNTAEVQKVQLTGEPVPMARCVSTGGRPPAQITWHSDLGGMPNTSQVPGFLSGTVTVTSLWILVPSSQVDGKNVTCKVEHESFEKPQLLTVNLTVYYPPEVSISGYDNNWYLGQNEATLTCDARSNPEPTGYNWSTTMGPLPPFAVAQGAQLLIRPVDKPINTTLICNVTNALGARQAELTVQVKEGPPSEHSGISRNGGGSGQDPYVKEAENLKKYFNAGHSDVVDNGTLFLGILKNWKEESDRKIMQSQIVSFYFKLFKNFKDDQSIQKSVETIKEDMNVKFFNSNKKKRDDFEKLTNYSVTDLNVQRKAIHELIQVMAELSPAAKTGKRKRSQMLFRGGGGSGGGGSGGGGSGGGGSQDPYVKEAENLKKYFNAGHSDVVDNGTLFLGILKNWKEESDRKIMQSQIVSFYFKLFKNFKDDQSIQKSVETIKEDMNVKFFNSNKKKRDDFEKLTNYSVTDLNVQRKAIHELIQVMAELSPAAKTGKRKRSQMLFRGGGGGSGGGDKTHTCPPCPAPEKKGGPSVFLFPPKPKDTLMISRTPEVTCVVVDVSHEDPEVKFNWYVDGVEVHNAKTKPREEQYNSTYRVVSVLTVLHQDWLNGKEYKCKVSNKALPAPIEKTISKAKGQPREPQVYVLPPSREEMTKNQVSLLCLVKGFYPSDIAVEWESNGQPENRYMTWPPVLDSDGSFFLYSKLTVDKSRWQQGNVFSCSVMHEALHNHYTQKSLSLSPGK
In the case of B1, the “IFN-γ signal transduction, HEK-IFN-γ” value in experiment [1] was below 0.2%. Besides, the “IL-12 signal transduction, HEK-IL-12-TIGIT” value in experiment [2] worked out at 40%. Also, the “IL-12 signal transduction, HEK-IL-12” value in experiment [3] was below 0.2%.

B2: IFN-γ(A23V/A23V)/CD155-Fc (Fc fusion)
chain 1: WPPPGTGDVVVQAPTQVPGFLGDSVTLPCYLQVPNMEVTHVSQLTWARHGESGSMAVFHQTQGPSYSESKRLEFVAARLGAELRNASLRMFGLRVEDEGNYTCLFVTFPQGSRSVDIWLRVLAKPQNTAEVQKVQLTGEPVPMARCVSTGGRPPAQITWHSDLGGMPNTSQVPGFLSGTVTVTSLWILVPSSQVDGKNVTCKVEHESFEKPQLLTVNLTVYYPPEVSISGYDNNWYLGQNEATLTCDARSNPEPTGYNWSTTMGPLPPFAVAQGAQLLIRPVDKPINTTLICNVTNALGARQAELTVQVKEGPPSEHSGISRNGGGGSGGGDKTHTCPPCPAPEDEGGPSVFLFPPKPKDTLMISRTPEVTCVVVDVSHEDPEVKFNWYVDGVEVHNAKTKPREEQYNSTYRVVSVLTVLHQDWLNGKEYKCKVSNKALPAPIEKTISKAKGQPREPQVYVYPPSREEMTKNQVSLTCLVKGFYPSDIAVEWESNGQPENNYKTTPPVLDEDGSFALVSKLTVDKSRWQQGNVFSCSVMHEALHNHYTQKSLSLSPGK
chain 2: B1 chain 2
As for B2, the “IFN-γ signal transduction, HEK-IFN-γ” value in experiment [1] was below 0.2%.

B3: IFN-γ(A23V/A23V)/CD155-Fc/IL-12(E59A/F60A) (Fc fusion)
chain 1: WPPPGTGDVVVQAPTQVPGFLGDSVTLPCYLQVPNMEVTHVSQLTWARHGESGSMAVFHQTQGPSYSESKRLEFVAARLGAELRNASLRMFGLRVEDEGNYTCLFVTFPQGSRSVDIWLRVLAKPQNTAEVQKVQLTGEPVPMARCVSTGGRPPAQITWHSDLGGMPNTSQVPGFLSGTVTVTSLWILVPSSQVDGKNVTCKVEHESFEKPQLLTVNLTVYYPPEVSISGYDNNWYLGQNEATLTCDARSNPEPTGYNWSTTMGPLPPFAVAQGAQLLIRPVDKPINTTLICNVTNALGARQAELTVQVKEGPPSEHSGISRNGGGGSGGGDKTHTCPPCPAPEDEGGPSVFLFPPKPKDTLMISRTPEVTCVVVDVSHEDPEVKFNWYVDGVEVHNAKTKPREEQYNSTYRVVSVLTVLHQDWLNGKEYKCKVSNKALPAPIEKTISKAKGQPREPQVYVYPPSREEMTKNQVSLTCLVKGFYPSDIAVEWESNGQPENNYKTTPPVLDEDGSFALVSKLTVDKSRWQQGNVFSCSVMHEALHNHYTQKSLSLSPGKGGGGSGGGIWELKKDVYVVELDWYPDAPGEMVVLTCDTPEEDGITWTLDQSSEVLGSGKTLTIQVKAAGDAGQYTCHKGGEVLSHSLLLLHKKEDGIWSTDILKDQKEPKNKTFLRCEAKNYSGRFTCWWLTTISTDLTFSVKSSRGSSDPQGVTCGAATLSAERVRGDNKEYEYSVECQEDSACPAAEESLPIEVMVDAVHKLKYENYTSSFFIRDIIKPDPPKNLQLKPLKNSRQVEVSWEYPDTWSTPHSYFSLTFCVQVQGKSKREKKDRVFTDKTSATVICRKNASISVRAQDRYYSSSWSEWASVPCSGGGGSGGGSGGGGSRNLPVATPDPGMFPCLHHSQNLLRAVSNMLQKARQTLEFYPCTSEEIDHEDITKDKTSTVEACLPLELTKNESCLNSRETSFITNGSCLASRKTSFMMALCLSSIYEDLKMYQVEFKTMNAKLLMDPKRQIFLDQNMLAVIDELMQALNFNSETVPQKSSLEEPDFYKTKIKLCILLHAFRIRAVTIDRVMSYLNAS
chain 2: B1 chain 2
On to B3, for which, in experiment [1], the “IFN-γ signal transduction, HEK-IFN-γ” value was below 0.2%. In addition, in experiment [2], the “IL-12 signal transduction, HEK-IL-12-TIGIT” value was 60%. Besides, the “IL-12 signal transduction, HEK-IL-12” value in experiment [3] stood at 2%.

B4: PD-L2(mut2)-Fc, S58V (Fc fusion)
chain 1: LFTVTVPKELYIIEHGSNVTLECNFDTGSHVNLGAITAVLQKVENDTSPHRERATLLEEQLPLGKASFHIPQVQVRDEGQYQCIIIYGVAWDYKYLTLKVKASYRKINTHILKVPETDEVELTCQATGYPLAEVSWPNVSVPANTSHSRTPEGLYQVTSVLRLKPPPGRNFSCVFWNTHVRELTLASIDLQSQMEPRTHPTGGGGSGGGDKTHTCPPCPAPEDEGGPSVFLFPPKPKDTLMISRTPEVTCVVVDVSHEDPEVKFNWYVDGVEVHNAKTKPREEQYNSTYRVVSVLTVLHQDWLNGKEYKCKVSNKALPAPIEKTISKAKGQPREPQVYVYPPSREEMTKNQVSLTCLVKGFYPSDIAVEWESNGQPENNYKTTPPVLDEDGSFALVSKLTVDKSRWQQGNVFSCSVMHEALHNHYTQKSLSLSPGK
chain 2: B4 chain 1 with D223K, E224K, Y340L, T355L, N379R, K381M, T383W, E389S, A394F, V396Y
notes: also called PD-L2(S58V)
Take B4: the Kd turned out to be 230 nM in experiment [4] and 350 nM in experiment [5].

B5: PD-L2(mut4)-Fc, T56V/S58V/Q60L (Fc fusion)
chain 1: B4 chain 1 with T37V, Q41L
chain 2: LFTVTVPKELYIIEHGSNVTLECNFDTGSHVNLGAIVAVLLKVENDTSPHRERATLLEEQLPLGKASFHIPQVQVRDEGQYQCIIIYGVAWDYKYLTLKVKASYRKINTHILKVPETDEVELTCQATGYPLAEVSWPNVSVPANTSHSRTPEGLYQVTSVLRLKPPPGRNFSCVFWNTHVRELTLASIDLQSQMEPRTHPTGGGGSGGGDKTHTCPPCPAPEKKGGPSVFLFPPKPKDTLMISRTPEVTCVVVDVSHEDPEVKFNWYVDGVEVHNAKTKPREEQYNSTYRVVSVLTVLHQDWLNGKEYKCKVSNKALPAPIEKTISKAKGQPREPQVYVLPPSREEMTKNQVSLLCLVKGFYPSDIAVEWESNGQPENRYMTWPPVLDSDGSFFLYSKLTVDKSRWQQGNVFSCSVMHEALHNHYTQKSLSLSPGK
B5: the Kd in experiment [4] amounted to 220 nM; in experiment [5], 255 nM.
